B1: Chaperone ric-8 (Caenorhabditis elegans), Q9GSX9-1 (parent)
chain: MSEELHSDLIASIFGGKPAKIEEFFSKWNFANAAVSKFDMANSAKNELGDRICEVIENGELTHVLLETIKILSREKDGLEGLLNDPLCDKILAFAELSSNENNSKTVHTLMEAQKCLINTLFHSQRMRDRFYANPKTGENLQFFLGEFEENRRKTSSIDWIRLLNPVQAAEIWYFYHRIAFIATALGREFQKNWANDPKTIDSLLLAVEICTNRSENSTQDINRATEALKTFFNVFCHFHGDVKAIDHKNAAKTCQILRDAICSDVLTDDVVQSAIHCLSVPPLPMVLSVLCGKNSKNNGGENEEEKFFVEELSNMQLTEAILMHLDKQLTKVVALLLNDAPNQQQNPMLSAEASTLTDLVGPYFQVLARLCTDSKYVRRYCRIRVIPPLVSEEVQKRPEENNTLRGRIARIMMLPSSTKDVAAEFLFIICKRSVNRMIKYLGFGHSAGHLANLGLLGQINQPKHASDSEDSETEDYNQIKDSVNPVTGAIYPSDHGSALAGMSEEQKEYEAMKLVDAMNQMMETGIVKPGTIGDDGKIREVSHVLELLKNAPEPAPAENSDSDEE

Experimental findings from IntAct's records for PubMed 15479639 are described below.

In this assay the parent is B1. As to conditions: with gnao_caeel goa-1, P51875.
Sequence of gnao_caeel goa-1, P51875 (P51875 whole entry): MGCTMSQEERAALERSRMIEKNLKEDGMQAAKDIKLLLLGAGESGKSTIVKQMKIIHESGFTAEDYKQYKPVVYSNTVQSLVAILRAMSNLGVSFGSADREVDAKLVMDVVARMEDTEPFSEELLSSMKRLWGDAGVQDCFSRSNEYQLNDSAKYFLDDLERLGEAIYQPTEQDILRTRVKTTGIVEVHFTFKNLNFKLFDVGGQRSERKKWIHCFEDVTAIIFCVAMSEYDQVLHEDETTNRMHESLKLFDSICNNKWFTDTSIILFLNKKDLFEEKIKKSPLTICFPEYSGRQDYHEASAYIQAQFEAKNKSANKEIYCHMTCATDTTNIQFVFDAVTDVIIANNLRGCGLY
For the variant A275E, the “effect of a mutation on the interaction” value is reported as “decreasing interaction”.
Next, L267F: “increasing interaction”.
